Measurements taken from publication doi:10.1101/2023.02.28.527262, “Tozorakimab (MEDI3506): a dual-pharmacology anti-IL-33 antibody that inhibits IL-33 signalling via ST2 and RAGE/EGFR to reduce inflammation and epithelial dysfunction” (bioRxiv, 2023).

Target: T1, soluble serum stimulated 2 (sST2) (UniProt Q01638-2 19-328)
T1 construct: ST2 (IL1RL1), truncated soluble isoform that lacks the transmembrane and intracellular domains of ST2L; also called soluble ST2; IL1RL1; source: recombinant; expression and purification described previously [21]; receptor glycoproteins re-monomerized by Superdex 200 SEC
T1 sequence (looked up): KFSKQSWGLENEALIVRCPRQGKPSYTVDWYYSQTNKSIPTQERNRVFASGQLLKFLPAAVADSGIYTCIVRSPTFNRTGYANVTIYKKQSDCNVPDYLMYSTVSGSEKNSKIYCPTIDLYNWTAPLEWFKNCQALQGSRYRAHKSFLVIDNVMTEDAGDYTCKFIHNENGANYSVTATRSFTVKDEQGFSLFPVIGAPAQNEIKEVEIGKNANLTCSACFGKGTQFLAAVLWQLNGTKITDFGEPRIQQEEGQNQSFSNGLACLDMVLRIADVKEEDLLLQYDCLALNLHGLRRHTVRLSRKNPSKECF
Test: KinExA; kinetic exclusion assay in free solution; IL-33^red titrated into fixed sST2 (30 pM and 2.0 pM); 1:1 binding model fitted to two datasets; association rate also by KinExA
Details: both partners purified

Kd: 0.09 pM | kon: 1.5e+08 M⁻¹ s⁻¹
B1: reduced interleukin-33 (IL-33^red), residues 112–270 (ligand, human, UniProt O95760 112-270, looked up)
chain: SITGISPITEYLASLSTYNDQSITFALEDESYEIYVEDLKKDEKKDKVLLSYYESQHPSNESGDGVDGKMLMVTLSPTKDFWLHANNKEHSVELHKCEKPLPDQAFFVLHNMHSNCVSFECKTDPGVFIGVKDNHLALIKVDSSENLCTENILFKLSET
notes: Interleukin-33, human, residues 112-270, reduced form (free cysteines); also called wild-type IL-33; source: recombinant; expression and purification described previously [21]
